T1: P97 cilium adhesin peptidic complex (F2P97 / R1-containing section, SELEX target) (Mycoplasma hyopneumoniae)
T1 chain: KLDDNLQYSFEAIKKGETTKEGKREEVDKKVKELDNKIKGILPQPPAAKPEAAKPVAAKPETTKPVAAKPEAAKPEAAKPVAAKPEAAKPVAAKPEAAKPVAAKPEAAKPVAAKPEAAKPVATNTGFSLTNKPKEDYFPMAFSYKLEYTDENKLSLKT

B1: APT3Histo1 (ssDNA)
DNA: GCCTGTTGTGAGCCTCCTAACCGCACGTGGGTATTCTAAGTGCGGTAGCTCAATGGTGAGCGATGAGCATCATGCTTATTCTTGTCTCCC
B2: APT3Cooc3 (ssDNA)
DNA: GCCTGTTGTGAGCCTCCTAACTAGCTCGTAGAAAAAAAATATAGCGTGTGCTGGGACTGCTCGGGATTGCGGACACATGCTTATTCTTGTCTCCC

Target: T1, P97 cilium adhesin peptidic complex …
Experiment: ELISA; reverse screening on streptavidin plate, 37 C
Details: tags: His tag (Ni-NTA captured); label: biotin in reverse screening
Procedure: Reverse Screening of Aptamer—Selected ssDNA molecules from each individual clone were biotinylated using the B-T3 which is same sequence with 5′ primer (T3 primer), and Klenow fragment (2 unit/ml). To prepare single stranded biotin conjugated APT3Cooc10 aptamer for the reverse screening. T3 Primer was Biotin labelled. A 96-well flat bottom ELISA plate was prepared by coating each well with 100 μl of streptavidin (100 μg/ml) diluted in 0.1 M NaHCO₃ following by a 37° C. overnight incubation. Following several washings with PBS, wells were blocked with 200 μl of PBS containing 1% BSA for 2 hours at room temperature and subsequent washing three times with PBS-T (10 mM PBS containing 0.05% (v/v) Tween-20). Thereafter, 100 μl of 2.5 pmole/100 μl biotinylated-ssDNA were added to the wells and incubated at 37° C. for 2 hours followed by washing four times with PBS-T. T3 primer was used as negative control. Following washing, 100 μl of fluid containing 2 μg histidine labelled P97 peptidic complex were added to the indicated wells and incubated at 37° C. for 2 hours. […]
Enzyme-Linked Immunosorbent Assay (ELISA)—The ELISA tests were carried-out following all the guidelines provided with the DAKO kit. Reaction was terminated with 100 μl of 0.5M H₂SO₄, and the plates were read with a multichannel spectrophotometer at 450 nm.

Binder	binding result
B1	binds
B2	binds
